Source: patent EP3922993A1

Target: T1, Recombinant GST-tagged hDPP3 (human) (UniProt Q9NY33)
T1 sequence: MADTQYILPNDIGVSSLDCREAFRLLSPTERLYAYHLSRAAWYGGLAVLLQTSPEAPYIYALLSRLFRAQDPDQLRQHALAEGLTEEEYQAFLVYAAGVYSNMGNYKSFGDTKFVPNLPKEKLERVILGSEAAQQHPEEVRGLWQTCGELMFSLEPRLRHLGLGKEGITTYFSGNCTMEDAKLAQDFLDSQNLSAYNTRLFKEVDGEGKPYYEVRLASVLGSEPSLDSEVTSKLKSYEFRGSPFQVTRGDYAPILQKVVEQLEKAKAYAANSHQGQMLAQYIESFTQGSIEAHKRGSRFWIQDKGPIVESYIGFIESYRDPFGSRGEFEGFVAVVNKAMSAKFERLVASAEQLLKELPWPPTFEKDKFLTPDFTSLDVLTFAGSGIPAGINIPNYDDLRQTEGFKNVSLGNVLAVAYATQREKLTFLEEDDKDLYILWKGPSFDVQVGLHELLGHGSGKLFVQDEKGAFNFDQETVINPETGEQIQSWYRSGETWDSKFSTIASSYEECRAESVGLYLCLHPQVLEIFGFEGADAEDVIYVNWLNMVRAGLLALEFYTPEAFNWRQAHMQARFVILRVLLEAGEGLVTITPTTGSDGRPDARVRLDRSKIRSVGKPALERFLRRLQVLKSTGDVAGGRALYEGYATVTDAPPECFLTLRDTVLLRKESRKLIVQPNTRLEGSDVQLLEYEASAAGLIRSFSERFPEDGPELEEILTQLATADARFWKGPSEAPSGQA
Test: cell-based or functional assay

B1: anti-DPP3 antibody clone 2555 (antibody, from another filing, V domains shown)
VH: EVQLQQSGPELVKPGASVKISCKASGYSFTGYYIHWVKQSPENSLEWIGEINPSTGGTNYNQKFKGKATLTVDKSSSTAYMQLKSLTSEESAVYYCTRSYYGIYSWFAYWGQGTLVTVSA
VL: DIKMTQSPSSMYASLGERVTITCKASQDIKSYLSWYQQKPWKSPKTLIYYATSLADGVPSRFSGSGSGQDYSLTISSLESDDTATYYCLQHGESPRTFGGGTKLEIK
  Max inhibition of hDPP3: 25%
